Results taken from patent US20060188503A1.

Assays:
[1] = molecular target: KDR receptor on human umbilical vein endothelial cells (HUVEC) (human) (UniProt P35968); assay: cell-based or functional assay
[2] = molecular target: KDR receptor with a gD tag at the N-terminus, on CHO cells (UniProt P35968); assay: cell-based or functional assay

Sequence of KDR receptor on human umbilical vein endothelial cells (HUVEC) (human) (P35968 20-1356): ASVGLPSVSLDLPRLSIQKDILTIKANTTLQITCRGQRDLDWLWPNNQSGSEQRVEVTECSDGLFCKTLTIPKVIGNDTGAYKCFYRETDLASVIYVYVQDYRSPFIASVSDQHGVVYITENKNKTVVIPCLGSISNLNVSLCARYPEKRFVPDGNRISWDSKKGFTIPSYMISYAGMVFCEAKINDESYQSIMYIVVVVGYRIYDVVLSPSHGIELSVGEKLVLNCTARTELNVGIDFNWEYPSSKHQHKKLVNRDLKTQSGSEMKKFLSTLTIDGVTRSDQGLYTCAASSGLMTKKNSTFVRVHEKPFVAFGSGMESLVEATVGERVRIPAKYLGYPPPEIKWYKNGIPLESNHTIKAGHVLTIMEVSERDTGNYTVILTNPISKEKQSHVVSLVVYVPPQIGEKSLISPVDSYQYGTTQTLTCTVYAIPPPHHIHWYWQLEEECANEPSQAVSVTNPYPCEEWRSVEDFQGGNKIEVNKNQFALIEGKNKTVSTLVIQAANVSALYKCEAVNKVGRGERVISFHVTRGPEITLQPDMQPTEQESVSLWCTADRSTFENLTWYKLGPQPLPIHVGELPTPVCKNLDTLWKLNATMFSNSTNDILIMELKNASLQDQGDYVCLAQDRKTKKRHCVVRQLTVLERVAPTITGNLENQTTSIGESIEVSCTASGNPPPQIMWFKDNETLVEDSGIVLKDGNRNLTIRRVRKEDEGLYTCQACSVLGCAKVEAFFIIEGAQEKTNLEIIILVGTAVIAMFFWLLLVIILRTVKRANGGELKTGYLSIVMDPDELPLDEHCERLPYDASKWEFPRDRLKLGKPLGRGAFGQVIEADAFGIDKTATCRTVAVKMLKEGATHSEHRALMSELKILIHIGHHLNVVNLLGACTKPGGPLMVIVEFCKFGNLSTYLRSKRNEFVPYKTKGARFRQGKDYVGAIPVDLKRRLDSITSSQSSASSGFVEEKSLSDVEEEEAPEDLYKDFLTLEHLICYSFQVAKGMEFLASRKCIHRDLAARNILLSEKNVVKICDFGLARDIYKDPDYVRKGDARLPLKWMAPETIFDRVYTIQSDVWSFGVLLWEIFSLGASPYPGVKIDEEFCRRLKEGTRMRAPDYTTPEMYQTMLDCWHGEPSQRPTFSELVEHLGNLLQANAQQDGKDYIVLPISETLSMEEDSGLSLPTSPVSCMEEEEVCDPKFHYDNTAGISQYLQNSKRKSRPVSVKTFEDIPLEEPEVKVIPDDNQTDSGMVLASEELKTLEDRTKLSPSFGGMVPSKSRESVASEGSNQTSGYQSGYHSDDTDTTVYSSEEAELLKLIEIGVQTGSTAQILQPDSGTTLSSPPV

Endothelial Cell Proliferation Activity (HUVEC, 3H-thymidine), concentration [1]: 0.5 nM
Phosphorylation-Inducing Activity (KIRA), concentration at midpoint absorbance [2]: 2 nM
Substance: Native VEGF (8-109) (from UniProt P15692 214-315) (ligand)
